Test: yeast display, Sf9 membrane polyspecificity reagent, FACS + sequencing; frameworks hold sequencing errors
Method in brief: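 Genes from sorted yeast were amplified by colony PCR, read by MiSeq 2 × 250 sequencing and filtered on CDR length. These cells carried a synthetic nanobody library in Saccharomyces cerevisiae BJ5465 and were sorted by FACS into low and high (top ~1%) gates on anti-HA and streptavidin fluorescence. Polyreactivity is labelled according to the gate of origin.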

Sequence	polyreactivity (PSR sort gate)
QVQLVESGGGLVQAGGSLRLSCAASGSTIGSYAMGWYRQAPGKERELVAAITWNGGGTYYADSVKGRFTISRDNAKNTVYLQMNSLKPEDTAVYYCAADGWFGRVAPGSDYWGQGTQVTVSS	low polyreactivity
QVQLVESGGGLVQAGGSLRLSCAASGSTIHDYAMGWYRQAPGKEREFVAAISNSGGSTYYADSLKGRFTISRDNAKNTVYLQMNSLKPEDTAVYYCAADGRWYWDYEYWGQGTQVTVSS	low polyreactivity
QVQLVESGGGLVQAGGSLRLSCAASGSTIHINAMGWYRQAPGKERELVADINWSGGSTYYADSVKGRFTISRDNAKNTVYLQMNSLKPADSAVYYCAADVGVFTYSPYDAGEHDYWGQGSQVTVSS	low polyreactivity
QVQLVESGGGLVQAGGSLRLSCAASGSTIIRNAMGWYRQAPGKERELVAAISTSAGRTHYADSVKGRFTISRDHAKNTVYLNMNSLKPEDTAVSYCATRGKGHYYYWGQGTKVTVSS	high polyreactivity
QVQLVESGGGLVQAGGSLRLSCAASGSTIKTYATMGWYRQAPGKERELVSAITSGSSTNYADSVKGRFTISRDNAKNNVYLQMNSLKPEATAVYYCAADDYYNWYLGEPGDYWGQGTQVTVSS	low polyreactivity
QVQLVESGGGLVQAGGSLRLSCAASGSTILYYGMGWYRQAPGKERELVATITWRGGRTYYADSVKGRFTISRDNAKNTVYLQMNSLKTEDTAVYYCARVRLTTYGYYSWGQGTQVTVSS	high polyreactivity
QVQLVESGGGLVQAGGSLRLSCAASGSTIPYNTMGWYRQAPGKERELVAAISSSCRSTYYADSVKGRFTISRDNAKKTVYLQMNSLKPEDTAVYYCNAQIVASYQARRYYYWGQGTQVTVSS	low polyreactivity
QVQLVESGGGLVQAGGSLRLSCAASGSTIRGYAMGWYRQVTGKEREMGADISWSGTSTKYADSVKGRFTISRDNAKNTVYLQMNSLKPEDTAVYYCAKRYVRFPWRMDYWGQGTQVTVSS	high polyreactivity
QVQLVESGGGLVQAGGSLRLSCAASGSTIRKYAMGWYRQAPGKERELVAAISARGGSTYYADSVKGRFTISRDNAKNTVYLQMNSLNPEDTAVYYCAADGYRPYSTFDYWGQGTQVTVSS	high polyreactivity
QVQLVESGGGLVQAGGSLRLSCAASGSTIRYYAMGWYRQAPGKERELVAAITSSGTSTYYADSVKGRFTISRDNAKNTVDLQMNRLKPEDTAVYYCAARPVYKWVSSRYDYWGQGTQVTVSS	low polyreactivity
QVQLVESGGGLVQAGGSLRLSCAASGSTISPNAMGWYRQAPGKERELVPAITWSGGSNTYADSVKGRFTISRDNAKNTVYLQMNSLKPEDTAVYYCATVGYLYTPVVVTWWDWGDYWGQGTQVTVSS	low polyreactivity
QVQLVESGGGLVQAGGSLRLSCAASGSTITFYTMGWYRQEPGKEREFVADIDDSGGITYYADSVKGRFTISRDNAKNTVYLQMNSLKPEDTAVYSCAAEYWTACYWICVDYWGQGTQVTVSS	high polyreactivity
QVQLVESGGGLVQAGGSLRLSCAASGSTITYYTMGWYRQAPGKERELVAAISGSGGRTYYADSVKGRFTISRDNAKNTVYLQMNSLKPEDTAVYYCAAVYQLSRYDYWGQGTQVTVSS	high polyreactivity
QVQLVESGGGLVQAGGSLRLSCAASGSTIVVYAMGWYRQAPGKARELVAAITTSDDSTYYADSVKGRFTISRDNAKNTVYLQMNSLKPEDTAVYYCAATLRWQDGYSGQGTQVTVSS	low polyreactivity
QVQLVESGGGLVQAGGSLRLSCAASGSTIVYYAMGWYRQAPGKERELVAAINYSSGSTYYADSVKGRFTISRDNSKNTVYLQMNSLKPEDTAVYYCATDLLYYQYYSEYDYWGQGTQVTVSS	high polyreactivity
QVQLVESGGGLVQAGGSLRLSCAASGSTIYFYAMGWYRQAPGKERELVAAITRSGSTYYADSVKGRFTISRDNAKNTVYLQLNSLKPEDTAVYYCNADQYYGCRYVYLRHYNYWGQGTQVTVSS	high polyreactivity
QVQLVESGGGLVQAGGSLRLSCAASGSTIYLYDMGWYRQAPGKERELVATITSGTSTTYADSVKGRFTISRDYAKNTVYLQMNSLKPADTAVYYCNATDVGIITVGYGHGGYYWGQGTQVTVSS	low polyreactivity
QVQLVESGGGLVQAGGSLRLSCAASGSTIYPYAMGWYRQAPGKERELVAAISSGGRTYYADSEKGRFTISRDKAKNTVYLQMNSLKPEDPAVYYCAARVTKKYRRTYDYWGQGTQVTVSS	high polyreactivity
QVQLVESGGGLVQAGGSLRLSCAASGSTIYRNAMVWYRQAPGKERELVAAISKSGGSTYYADTVKGRFTISRDNAKNTVYLQMNSQKPEDTAVYYCNSRYWVTTGGYWGQGTQVTVSS	high polyreactivity
QVQLVESGGGLVQAGGSLRLSCAASGSTIYVYAMGWYRQAPGKERELVAAITDSGGSTYADSVKGRFTISRDNAKNTVYLQMNSLKPEDTAVYADSTYNWYYYYWGQGTQVTVSS	low polyreactivity

Sequence	polyreactivity (PSR sort gate)
QVQLVESGGGLVQAGGSLRLSCAASGSTLAGYAMGWSRQAPGKERELVAAITRRGGRTYYADSVKGRFTISRDNAKNTVYLQMNSLKPEDTAVYYCAAQRSVKVDYWGQGTQVTVSS	high polyreactivity
QVQLVESGGGLVQAGGSLRLSCAASGSTLAIYAMGWYRQAPGKERELVAAISRSGGTTYYADSVKGRFTISRDNAKNTVYLQMNSLKPEDTAVYYCYPYFWYPDGYTYDYWGQGTQVTVSS	high polyreactivity
QVQLVESGGGLVQAGGSLRLSCAASGSTLAPYVKGWYRQAPGKERELVAVISTRTGRTYYADSVKGRFTISRDNAKNTVYLQMNSLKPEDTAVYYCAAPVYPYQVQTYDYWGQGTQVTVSS	high polyreactivity
QVQLVESGGGLVQAGGSLRLSCAASGSTLAVYAMGWYRQAPGKEREFVAAISWSGVSTYYADSVKGRFTISRDNAKNTVYLQMNSLKPEDTAVYYCAAKRVRALYGGSEGGYWGQGTQVTVSS	low polyreactivity
QVQLVESGGGLVQAGGSLRLSCAASGSTLAVYPMGWYRQAPGKERELVAVIDRGGSTYYADSVKGRFTISRDNAKNTVYLQMNSLKPEDTAVFNCNARRVKGYGYWGHGTQVTVSS	high polyreactivity
QVQLVESGGGLVQAGGSLRLSCAASGSTLAYNAMGWYRQAPGKERELVATINFSGGSTYYADSVKGRFTISRDNSKNTVYLQMNSLKPEDTAVYYCNARGYWQYSPTKFDYWGQGTQVTVSS	low polyreactivity
QVQLVESGGGLVQAGGSLRLSCAASGSTLDDYVMGWYRQAPGKERELVAAISSSGSGTYYADSVKGRFTISRDNAKNTVYLQMNSLKPEDTAVYYCAAAYSYSGYGYYTYDYWGQGTQVTVSS	low polyreactivity
QVQLVESGGGLVQAGGSLRLSCAASGSTLDEYAMGWYRQAPGKEREFVAAISWSDGSTYADSVKGRFTISRDNAKNTVYLQMNSLKPEDTAVYYCNAYAYVSLYYSGEYWGQGTQVTVSS	low polyreactivity
QVQLVESGGGLVQAGGSLRLSCAASGSTLDSNAMGWYRQATGKERELVAAIDWSGGSTYYADSVKGRFTISRDHAKNTVYLQMNSLKPEDTAVYYCAADDSSINYGDFDYWGQGTQVTVSS	low polyreactivity
QVQLVESGGGLVQAGGSLRLSCAASGSTLDVYAMGWYRQAPGKERELVAAISWSVGSTYYAYSVKGRFKISRDNAKNTVYLQINRLKPEDTAVYNCAAEQYEYAYDGYDYWGQGTQVTVSS	high polyreactivity
QVQLVESGGGLVQAGGSLRLSCAASGSTLDYNDMGWYRQAPGKEREFVAAIRSNDGSTYYADSVKGRFTISRDNAKKTVYLQMNSLKPEDTAVYYCNKDVWDGYDWPEFDYLGQGTQVTVSS	low polyreactivity
QVQLVESGGGLVQAGGSLRLSCAASGSTLGRNAMGWYRQAPGKERELVAAISSTGGSTSYADSVKGRFTISRDNAKNTVYLQMNSLKPEDTAVYYCAKRFSPRYYYWGQGTQVTVSS	high polyreactivity
QVQLVESGGGLVQAGGSLRLSCAASGSTLGSYAMGWYRQAPGKERELVAAINTSGGNTYYADSVKGRFTISRDNAKNTVYLQMNSLKPEDTAVYYCNARYYGGGATFGYWGQGTQVTVSS	low polyreactivity
QVQLVESGGGLVQAGGSLRLSCAASGSTLGVNAMGWYRQAPGKEREFVSSITGRVGNTYYADSVKGRFTISRDNAKNTVYLQMNSLKPEDTAVYYCAARVKYTRYQSILDYYYWGQGTQVTVSS	high polyreactivity
QVQLVESGGGLVQAGGSLRLSCAASGSTLGYYAKGWYRQAPGKERELVATITRSGGNTYYADSVKGRFTISRDNAKNTVYLQMNSLKPEDTAVYYCAARRLYGSQRGYWGQGTQLTVSS	high polyreactivity
QVQLVESGGGLVQAGGSLRLSCAASGSTLHSYAMGWYRQAPGKERELVAALSFRGGSTYADSVKGRFTISRDNAKNTVYLQMNSLKPEDTAVYYCATRSTRADWYIVGYDYWGQGTQVTVSS	low polyreactivity
QVQLVESGGGLVQAGGSLRLSCAASGSTLIANAMGWYRQAPGKERELVAGITYRGGDITTYADSVKGRFTISRDTAKNTVYLQMNSLKPEDTAVYYCAARVVWPTWARGGYWGQGTQVTVSS	low polyreactivity
QVQLVESGGGLVQAGGSLRLSCAASGSTLIDYTMGWYRQAPGKERELVAAISSGGSTNYADSVKGRFTISRDNAKNTVYLQMNSLKPEDTAVYYCAKDHQRYFYGFWEHPRYDYWGQGTQVTVSS	high polyreactivity
QVQLVESGGGLVQAGGSLRLSCAASGSTLIEYAKGWYRQAPGKERELVARISKSGDSTYYADSVKGRFTISRDNAKNTVYLQMNSLKPEDTAVYYCAKYHRDGFYRSYWFRYDYWGQGTQVTVSS	low polyreactivity
QVQLVESGGGLVQAGGSLRLSCAASGSTLIWNVMGWYRQAPGKERELVATISSGGRTYYADSVKGRFTISRDNAKNTVYLQMNSLKPEDTAVYYCAARSRRGVSYRSYRSFDYWGQGTQVTVSS	high polyreactivity

Source: the nanobody polyreactivity screen of Harvey et al. (2022)
